This passage reports interaction score results from article PMC10397247.

The target in one experiment is T1, 4H1854-AA.
T1 chain: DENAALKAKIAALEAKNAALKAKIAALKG
The experiment can be described thus: two-hybrid library CCmax.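 Note: natural log of median RNA to DNA barcode read ratio; higher means stronger binding.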

Another experiment deals with T2, 4H189-AA.
T2 chain: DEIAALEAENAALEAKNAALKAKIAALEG
Description: two-hybrid library CCmax.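 Note: natural log of median RNA to DNA barcode read ratio; higher means stronger binding.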 The conditions noted are these: mean of both orientations.

In another experiment the target is T3, 4H2248-AA.
T3 chain: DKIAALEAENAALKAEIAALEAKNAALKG
Description: two-hybrid library CCmax.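 Note: natural log of median RNA to DNA barcode read ratio; higher means stronger binding.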 The conditions noted are these: mean of both orientations.

A further experiment addresses T4, 4H2283-AA.
T4 chain: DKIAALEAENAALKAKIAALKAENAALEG
The experiment can be described thus: two-hybrid library CCmax.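 Note: natural log of median RNA to DNA barcode read ratio; higher means stronger binding.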 To be noted: mean of both orientations.

The target in another experiment is T5, 4H2713-AA.
T5 chain: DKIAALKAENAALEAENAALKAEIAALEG
Description: two-hybrid library CCmax.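 Note: natural log of median RNA to DNA barcode read ratio; higher means stronger binding.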 To be noted: mean of both orientations.

The next experiment concerns the target T6, 4H2742-AA.
T6 chain: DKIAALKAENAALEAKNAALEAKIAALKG
Description: two-hybrid library CCmax.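 Note: natural log of median RNA to DNA barcode read ratio; higher means stronger binding.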 The conditions noted are these: mean of both orientations.

Another experiment deals with T7, 4H2948-AA.
T7 chain: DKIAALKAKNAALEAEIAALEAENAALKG
The experiment can be described thus: two-hybrid library CCmax. To be noted: mean of both orientations.

For a further experiment, the target named is T8, 4H2991-AA.
T8 chain: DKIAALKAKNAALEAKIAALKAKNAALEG
Description: two-hybrid library CCmax. To be noted: mean of both orientations.

The target of the next experiment is T9, 4H3029-AA.
T9 chain: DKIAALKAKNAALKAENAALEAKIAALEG
The experiment can be described thus: two-hybrid library CCmax. The conditions noted are these: mean of both orientations.

The next experiment concerns the target T10, 4H3066-AA.
T10 chain: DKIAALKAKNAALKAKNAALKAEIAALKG
The experiment can be described thus: two-hybrid library CCmax. To be noted: mean of both orientations.

In another experiment the target is T11, 4H3102-AA.
T11 chain: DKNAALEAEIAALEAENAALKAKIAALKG
The experiment can be described thus: two-hybrid library CCmax. The conditions noted are these: mean of both orientations.

The target in the next experiment is T12, 4H3121-AA.
T12 chain: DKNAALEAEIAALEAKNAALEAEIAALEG
Description: two-hybrid library CCmax. The conditions noted are these: mean of both orientations.

A further experiment addresses T13, 4H3417-AA.
T13 chain: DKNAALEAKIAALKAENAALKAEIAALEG
Description: two-hybrid library CCmax. The conditions noted are these: mean of both orientations.

For another experiment, the target named is T14, 4H3446-AA.
T14 chain: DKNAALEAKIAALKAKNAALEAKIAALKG
Description: two-hybrid library CCmax. The conditions noted are these: mean of both orientations.

For another experiment, the target named is T15, 4H3591-AA.
T15 chain: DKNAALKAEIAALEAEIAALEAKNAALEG
The experiment can be described thus: two-hybrid library CCmax. The conditions noted are these: mean of both orientations.

The target of a further experiment is T16, 4H3628-AA.
T16 chain: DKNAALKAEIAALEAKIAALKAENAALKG
The experiment can be described thus: two-hybrid library CCmax. To be noted: mean of both orientations.

The target of the next experiment is T17, 4H3666-AA.
T17 chain: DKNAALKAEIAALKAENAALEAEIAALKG
Description: two-hybrid library CCmax. To be noted: mean of both orientations.

In a further experiment the target is T18, 4H3709-AA.
T18 chain: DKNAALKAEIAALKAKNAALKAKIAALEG
The experiment can be described thus: two-hybrid library CCmax. To be noted: mean of both orientations.

A further experiment concerns the target T19, 4H391-AA.
T19 chain: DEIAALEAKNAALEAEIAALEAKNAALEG
The experiment can be described thus: two-hybrid library CCmax. To be noted: mean of both orientations.

Another experiment deals with T20, 4H3920-AA.
T20 chain: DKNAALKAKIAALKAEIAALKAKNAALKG
The experiment can be described thus: two-hybrid library CCmax. The conditions noted are these: mean of both orientations.

In another experiment the target is T21, 4H3939-AA.
T21 chain: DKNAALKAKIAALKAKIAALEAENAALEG
The experiment can be described thus: two-hybrid library CCmax. To be noted: mean of both orientations.

Another experiment deals with T22, 4H428-AA.
T22 chain: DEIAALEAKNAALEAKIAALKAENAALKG
The experiment can be described thus: two-hybrid library CCmax. To be noted: mean of both orientations.

The target of a further experiment is T23, 4H478-AA.
T23 chain: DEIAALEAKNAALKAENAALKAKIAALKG
Description: two-hybrid library CCmax. To be noted: mean of both orientations.

The next experiment deals with T24, 4H497-AA.
T24 chain: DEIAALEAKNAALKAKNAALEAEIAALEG
The experiment can be described thus: two-hybrid library CCmax. To be noted: mean of both orientations.

For another experiment, the target named is T25, 4H656-AA.
T25 chain: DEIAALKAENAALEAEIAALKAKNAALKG
The experiment can be described thus: two-hybrid library CCmax. To be noted: mean of both orientations.

Another experiment addresses T26, 4H675-AA.
T26 chain: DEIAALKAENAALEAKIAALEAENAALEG
Description: two-hybrid library CCmax. To be noted: mean of both orientations.

In another experiment the target is T27, 4H971-AA.
T27 chain: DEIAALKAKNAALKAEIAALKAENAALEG
Description: two-hybrid library CCmax. To be noted: mean of both orientations.

The target in a further experiment is T28, 4H470-bH.
T28 chain: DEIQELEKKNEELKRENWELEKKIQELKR
Description: two-hybrid library CCNG1.

For a further experiment, the target named is T29, O2-bA.
T29 chain: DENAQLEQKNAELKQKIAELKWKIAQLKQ
Description: two-hybrid library CCNG1.

In another experiment the target is T30, O3-bA.
T30 chain: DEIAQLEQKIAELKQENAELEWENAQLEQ
The experiment can be described thus: two-hybrid library CCNG1.

In the next experiment the target is T31, O4-bA.
T31 chain: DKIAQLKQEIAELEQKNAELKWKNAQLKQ
Description: two-hybrid library CCNG1.

The target in the next experiment is T32, O5-bA.
T32 chain: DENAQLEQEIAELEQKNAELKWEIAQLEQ
The experiment can be described thus: two-hybrid library CCNG1.

The target of a further experiment is T33, O6-bA.
T33 chain: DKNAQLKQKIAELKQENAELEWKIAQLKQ
The experiment can be described thus: two-hybrid library CCNG1.

A further experiment addresses T34, O7-bA.
T34 chain: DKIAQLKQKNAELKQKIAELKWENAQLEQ
Description: two-hybrid library CCNG1.

A further experiment addresses T35, O8-bA.
T35 chain: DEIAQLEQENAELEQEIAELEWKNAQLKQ
The experiment can be described thus: two-hybrid library CCNG1.

The next experiment deals with T36, O9-bA.
T36 chain: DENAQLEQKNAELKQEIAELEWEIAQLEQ
The experiment can be described thus: two-hybrid library CCNG1.

A further experiment deals with T37, 4H2673-bA.
T37 chain: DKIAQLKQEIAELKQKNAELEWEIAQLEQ
Description: two-hybrid library CCNG1.

The next experiment addresses T38, 4H2702-bA.
T38 chain: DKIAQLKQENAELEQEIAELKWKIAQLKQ
Description: two-hybrid library CCNG1.

The target in a further experiment is T39, 4H3010-bA.
T39 chain: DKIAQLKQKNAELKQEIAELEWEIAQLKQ
Description: two-hybrid library CCNG1.

In another experiment the target is T40, 4H3112-bA.
T40 chain: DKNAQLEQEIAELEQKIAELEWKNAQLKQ
The experiment can be described thus: two-hybrid library CCNG1.

For a further experiment, the target named is T41, 4H3427-bA.
T41 chain: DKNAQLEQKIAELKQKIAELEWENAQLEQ
The experiment can be described thus: two-hybrid library CCNG1.

Another experiment concerns the target T42, 4H346-bA.
T42 chain: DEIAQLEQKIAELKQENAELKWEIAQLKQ
Description: two-hybrid library CCNG1.

Another experiment concerns the target T43, 4H3926-bA.
T43 chain: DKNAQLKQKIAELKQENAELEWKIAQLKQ
Description: two-hybrid library CCNG1.

For another experiment, the target named is T44, 4H4073-bA.
T44 chain: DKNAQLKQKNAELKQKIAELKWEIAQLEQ
The experiment can be described thus: two-hybrid library CCNG1.

In another experiment the target is T45, 4H457-bA.
T45 chain: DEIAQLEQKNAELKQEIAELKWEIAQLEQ
Description: two-hybrid library CCNG1.

In another experiment the target is T46, 4H575-bA.
T46 chain: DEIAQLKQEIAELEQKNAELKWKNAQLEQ
Description: two-hybrid library CCNG1.

A further experiment deals with T47, 4H683-bA.
T47 chain: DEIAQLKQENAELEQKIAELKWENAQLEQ
Description: two-hybrid library CCNG1.

A further experiment deals with T48, 4H754-bA.
T48 chain: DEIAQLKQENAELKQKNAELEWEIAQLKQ
Description: two-hybrid library CCNG1.

The target in another experiment is T49, 4H780-bA.
T49 chain: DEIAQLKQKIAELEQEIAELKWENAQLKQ
Description: two-hybrid library CCNG1.

The target of another experiment is T50, 4H797-bA.
T50 chain: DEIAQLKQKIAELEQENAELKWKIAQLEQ
The experiment can be described thus: two-hybrid library CCNG1.

A further experiment addresses T51, 4H855-bA.
T51 chain: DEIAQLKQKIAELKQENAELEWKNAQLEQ
The experiment can be described thus: two-hybrid library CCNG1.

The target in a further experiment is T52, 4H918-bA.
T52 chain: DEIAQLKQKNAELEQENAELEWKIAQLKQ
The experiment can be described thus: two-hybrid library CCNG1.

In the next experiment the target is T53, 4H953-bA.
T53 chain: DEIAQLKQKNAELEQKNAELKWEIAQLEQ
Description: two-hybrid library CCNG1.

The next experiment has as its target T54, 4H968-bA.
T54 chain: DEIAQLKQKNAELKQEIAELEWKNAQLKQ
Description: two-hybrid library CCNG1.

In the case of DENAALKAKIAALEAKNAALKAKIAALKG [4H1854-AA], the interaction score with 4H1854-AA was 0.401; with 4H189-AA it was -1.76; with 4H2248-AA, 1.14; with 4H2283-AA, -0.597; in the experiment with 4H2713-AA it was -0.843; in the experiment with 4H2742-AA it was -1.53. Also, the interaction score is -0.756 with 4H2948-AA; -1.61 in the experiment with 4H2991-AA; -0.674 in the experiment with 4H3029-AA; -1.5 in the experiment with 4H3066-AA; 0.389 with 4H3102-AA; 1.28 in the experiment with 4H3121-AA. Moreover, the interaction score with 4H3417-AA was 1.7; with 4H3446-AA, -1; with 4H3591-AA, -0.937; with 4H3628-AA it was -1.22; in the experiment with 4H3666-AA, 1.68; with 4H3709-AA, -0.898. Besides, the interaction score with 4H391-AA was 0.189; with 4H3920-AA it was -1.51; with 4H3939-AA, -1.28; with 4H428-AA, -0.746; with 4H478-AA it was -1.16; in the experiment with 4H497-AA, -1.88. For the same molecule, the interaction score with 4H656-AA was 0.553; with 4H675-AA, 0.675; with 4H971-AA it was -2.3.

DEIQELEKKNEELKRENWELEKKIQELKR [4H470-bH] registered an interaction score with 4H470-bH of 0.789.

As to DENAQLEQKNAELKQKIAELKWKIAQLKQ [O2-bA], the interaction score with O2-bA was -0.405; with O3-bA, -0.0372; in the experiment with O4-bA, -0.35; in the experiment with O5-bA it was 0.59; with O6-bA, -0.5; with O7-bA, -0.0715. In addition, the interaction score was 0.682 in the experiment with O8-bA and 1 in the experiment with O9-bA.

For the molecule DKIAQLKQEIAELKQKNAELEWEIAQLEQ [4H2673-bA], the interaction score in the experiment with 4H2673-bA is 0.275; with 4H2702-bA, -1.01; in the experiment with 4H3010-bA, 2; with 4H3112-bA, -0.873; with 4H3427-bA, -1.17; with 4H346-bA, -0.931. For the same molecule, the interaction score is 1.58 in the experiment with 4H3926-bA; 0.202 with 4H4073-bA; -1.45 with 4H457-bA; 0.276 with 4H575-bA; -0.575 with 4H683-bA; -0.889 with 4H754-bA. The interaction score with 4H780-bA was -1.03; with 4H797-bA, -2.16; with 4H855-bA, 0.000366; with 4H918-bA, -0.235; in the experiment with 4H953-bA, -0.927; in the experiment with 4H968-bA, -0.811.
